Measurements reported in the supplement of paper PMC10567573.

B1: FBXO3 (parent)
chain: DEEERRRRVFDVPIRRRRCSRLF

Variants of: B1
Experiment: protein stability index of a GFP-peptide fusion (GPS, HEK-293T) (PSI 1-6); higher = more stable
Conditions: c terminus: native
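Further: lentivirally expressed fusions sorted by FACS into six bins by GFP to DsRed ratio, PSI derived from sequencing read proportions per bin multiplied by bin number.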

| Variant | protein stability index |
| --- | --- |
| DEEERRRRVFDVPIRRRRCWRLF [S20W] | 2.47 |
| DEEERRRRVFDVPIRRRRCFRLF [S20F] | 2.77 |
| DEEERRRRVFDVPIRRRRCDRLF [S20D] | 2.2 |
| DEEERRRRVFDVPIRRRRCVRLF [S20V] | 2.06 |
| DEEERRRRVFDVPIRRRRCLRLF [S20L] | 2.36 |
| DEEERRRRVFDVPIRRRRCTRLF [S20T] | 1.91 |
| DEEERRRRVFDVPIRRRRCRRLF [S20R] | 3.35 |
| DEEERRRRVFDVPIRRRRCYRLF [S20Y] | 2.22 |
| DEEERRRRVFDVPIRRRRCHRLF [S20H] | 2.68 |
| DEEERRRRVFDVPIRRRRCIRLF [S20I] | 2.05 |
| DEEERRRRVFDVPIRRRRCARLF [S20A] | 2.15 |
| DEEERRRRVFDVPIRRRRCKRLF [S20K] | 2.69 |
| DEEERRRRVFDVPIRRRRCERLF [S20E] | 3.04 |
| DEEERRRRVFDVPIRRRRCGRLF [S20G] | 3.48 |
| DEEERRRRVFDVPIRRRRMSRLF [C19M] | 3.23 |
| DEEERRRRVFDVPIRRRRISRLF [C19I] | 3.49 |
| DEEERRRRVFDVPIRRRRTSRLF [C19T] | 3.63 |
| DEEERRRRVFDVPIRRRRLSRLF [C19L] | 3.54 |
| DEEERRRRVFDVPIRRRRDSRLF [C19D] | 3.44 |
| DEEERRRRVFDVPIRRRRHSRLF [C19H] | 4.39 |
| DEEERRRRVFDVPIRRRRKSRLF [C19K] | 4.77 |
| DEEERRRRVFDVPIRRRRFSRLF [C19F] | 3.76 |
| DEEERRRRVFDVPIRRRRESRLF [C19E] | 1.83 |
| DEEERRRRVFDVPIRRRRQSRLF [C19Q] | 4.39 |
| DEEERRRRVFDVPIRRRRVSRLF [C19V] | 3.22 |

| Variant | protein stability index |
| --- | --- |
| DEEERRRRVFDVPIRRRRWSRLF [C19W] | 3.64 |
| DEEERRRRVFDVPIRRRRASRLF [C19A] | 3.62 |
| DEEERRRRVFDVPIRRRRGSRLF [C19G] | 1.93 |
| DEEERRRRVFDVPIRRRRNSRLF [C19N] | 4.56 |
| DEEERRRRVFDVPIRRRRSSRLF [C19S] | 4.15 |
| DEEERRRRVFDVPIRRRRRSRLF [C19R] | 4.59 |
| DEEERRRRVFDVPIRRRRYSRLF [C19Y] | 3.36 |
| DEEERRRRVFDVPIRRRRPSRLF [C19P] | 2.56 |
| DEEERRRRVFDVPIRRWRCSRLF [R17W] | 2.83 |
| DEEERRRRVFDVPIRRHRCSRLF [R17H] | 2.21 |
| DEEERRRRVFDVPIRRQRCSRLF [R17Q] | 2.5 |
| DEEERRRRVFDVPIRRTRCSRLF [R17T] | 2.82 |
| DEEERRRRVFDVPIRRMRCSRLF [R17M] | 2.27 |
| DEEERRRRVFDVPIRRYRCSRLF [R17Y] | 1.58 |
| DEEERRRRVFDVPIRRSRCSRLF [R17S] | 1.77 |
| DEEERRRRVFDVPIRRERCSRLF [R17E] | 2.27 |
| DEEERRRRVFDVPIRRNRCSRLF [R17N] | 2.09 |
| DEEERRRRVFDVPIRRGRCSRLF [R17G] | 1.98 |
| DEEERRRRVFDVPIRRLRCSRLF [R17L] | 1.84 |
| DEEERRRRVFDVPIRRVRCSRLF [R17V] | 2.06 |
| DEEERRRRVFDVPIRRIRCSRLF [R17I] | 1.84 |
| DEEERRRRVFDVPIRRPRCSRLF [R17P] | 1.96 |
| DEEERRRRVFDVPIRRKRCSRLF [R17K] | 3.27 |
| DEEERRRRVFDVPIRRFRCSRLF [R17F] | 1.87 |
